assay: soluble on expression in E. coli; label from the status in PepcDB or PDB records

Soluble on expression in E. coli, not soluble:
MQPDLHCRTLAAHTLKHFRALSPLTHCMTNDVVQTFTANTLLALGASPAMVIDPVEARPFAAIANALLINVGTLTASRADAMRAAVESAYDAKTPWTLDPVAVGALEFRRRFCLDLLSLRPAAIRGNASEILALSGMALGGRGVDTTEAALAALPAAQALARQIDCIVVVTGEIDYVTNGQRTLSIPGGDPLMTRIVGTGCALSAVVAASCALPGAALDNVASACCWMKLAGQAAAERSEGPGSFIPAFLDALYHLDVEAANATN, MSLSKSDDGDSEESFSISVQSGFEAMSQELCIVMCLKDLTSIVDIKTSSRPAMIGSLTDGSTETFWESGDEDKNKTKNITINCVKGINARYVSVHVDNSRDLGNKVTSMTFLTGKAVEELCRIKQVDLDSRHIGWVTSELPGGDNQIIKIELKGPENTLRVRQVKVLGWKDGESTKIAGQISASVAQQRSCEAETLRVFRLITSQVFGKLISGDAEPTPEQEEKALLSSPEGEEKATSDADLKEHMVGIIFSRSKLTNLQKQVCAHIVQAIRMEATRVREEWEHAISSKENANSQPSDEDASSDAYCFELLSMVLALSGSNVGRQYLAQQLTLLQDLFSLLHTASPRVQRQVTSLLRRVLPEVTPNRLASIIGVKSLPPADISDIIHSTEKGDWNKLGILDMFLGCIAKALTVQLKAKGTTITGTAGTTVGKGVTTVTLPMIFNSSYLRRGESHWWMKGSTPTQISEIIIRLIKDMAAGHLSEAWSRVTKNAIAETIIALTKMEEEFRSPVRCIATTRLWLALASLCVLDQDHVDRLSSGRWMGKDGQQKQMPMCDNHDDGETAAIILCNICGNLCTDCDRFLHLHRRTKTHQRQVFKEEEEAIKVDLHEGCGRTKLFWLMALADSKTMKAMVEFREHTGKPTTSSSEACRFCGSRSGTELSAVGSVCSDADCQEYAKIACSKTHPCGHPCGGVRNEEHCLPCLHGCDKSATTLKQDADDMCMICFTEALSAAPAIQLDCSHVFHLQCCRRVLENRWLGPRITFGFISCPICKNKINHIVLKDLLDPIKELYEDVRRKALMRLEYEGLHKSEAITTEGHHHHHH, MGSDKIHHHHHHMPFANPQEAIDFLDKHPQVQHVEVFIIDPNGIPRGKLLHRQEVLSMYRHGRPLPSTILGLTVQGDDVEDTGLVWEVGDADCLAFPIEGGLLMQPWRAQPTAQVHLTMHPEAGMPAAVADPRLVLSKVIDSLQADGFYPVMAAELEFFLLDQRFDANGRPQPAMQSDGHRPHQTQVYGILELERLQPFLDDLYHACEVQGIPARTAISEYAPGQVEITLEHRFDALQAMDEAVRYKRLVKGVAAKHGMQACFMAKPFGELAGSGMHMHVSLADADGNNRFASDNPEGTPELTQSIAGMMATLEDAQLLFCPNANSFRRFQSASYAPIAKTWGVNNRTVSFRVPGGPAPSRHVEHRICGADANPYLAAAAILAACHHGIRNQLSPGQAIVGNGYEGKHQTLPTDWLSALTNFERSEWMKSVLGEDFHRIYGRIKRAEYQEFMAEVGQQDWHWYLTHA, GYSNAGLVNNLAGKLIANYWLDKVYSKEEGYAHRNGDVHIHDLDCLTGYCAGWSLRSLLNEGFNGVRGRVESRAPKHLREALGQMANFLGILQSEWAGAQAFSSFDTYLAPYVFRDQLEFKEIKKAIKSFVYNLNVPARWGQSPFTNVTIDWTVPADLKDQIPTRNDRHLFEDIQEDALLVQEAQKRGASSLLSMTYKYFQAEMNLINRAFYEVMTEGDKTGQPFTFPIPTVNITEDFDWHGENTDLLFENTAKIGSSYFQNFIGSQYIRNEKGELVENPEAYKPNAVRSMCCRLQLDLRELLKRGGGLFGSAEMTGSIGVVTLNMARLGYRFRGDREGLMAELTKLMDLSKSTLEKKRQAVTELFHRGLYPYTKRYLPGFNNHFSTIGVNGINEMIRNFTNDQDNISSPSGMAFATEILEFMRERIRSYQEETGNLYNLEATPAEGTTYRFAKEDKKRYPQIIQAGMEENVYYTNSSQLPANFTDDPFEALTLQDELQCKYTGGTVLHLYMREKISSAEACRKLVKTVITSYKLPYITITPVFSVCPKHGYLRGEHEYCPLCDEEALLEIEQSQCC, MGSDKIHHHHHHMNPLETLWQLAANSVKADVLHLALEQQIFDRLEDVTAPEQLAESLGWQPEKTGFLLEILWSMQLLTRHHGGYRTASASSAVLCRSSPRFLGDAWRFRLTSLRQFGQGLADGMHQPLPAQLSELPRDAAWASAAEQQIAQEQRSITADLADQLLSRLPDFPQIRHVLDLGGGPGWVAITLALRHAQISGTIYDLPQTAAVAQRNINAAGLSARLSAQSGAFPSEKYDLIWSSSFLHFVEDIPAMLSTLYNTLTPDGSLVLAQAEIPEEADDAAPILPFYLPMQISGRHVTQEGQLTQWLVEAGFTSVETRRHQAFPMAPLNVLIARKHR, MAEWNRAKRKRKTIEIQYTGLASNSTLKVTKVTGKHLESMGIPGKFGYEVYPEEAVYLMETGSATISTSSGRDLSLLEAFSILEAMSVPMSKYEAYKHVKRTGLVVLRPRKPTIDFERLRHVEPKIRQKFAEKSFEMLVNRHTVPEERVPNPDSFPSFENRNGQISMKMKVLHTSPALVNFLPLEMLESIQTSTILQNLKPPTPNRPPCRPPSYWPFVDHHVTNWQEFRFQAEQARQETVLRRLKKLRPPSHAELRRERITVENVDFHVFSPASFSHRLPARPLFSLICYSATGPPLKISELAELENVVFAMEEAGKVNFVAMSGASIDLNNYLC, NLNKVKFTEEHAIEVTNWKYEGKYSIYNLPPWEEIKKKNFSLAKEDKRKNFISFINDNKELIGFINLLDEGSSVFFGIGMKPNYCGMGIGKEIISLRLQECRNKYSTKPIVLNVRTWNMRAVKCYESQGFKIVETKVQKTH, MGSDKIHHHHHHMENLGDRLEVVAELSLAPGNITLTPDGRLFLSLHQFYQPEMQVAELTQDGLIPFPPQSGNAIITFDTVLGIKSDGNGIVWMLDNGNQSKSVPKLVAWDTLNNQLSRVIYLPPPITLSNSFVNDLAVDLIHNFVYISDPAPDDKAALIRVDLQTGLAARVLQGYPGIAPEDIDLVIDGVPVQIGQPDGTVIRPHLGVNGIVLDAENEWLYLSPMHSTSMYRIKSADLSNLQLTDAELGSKIERYSEKPICDGISIDKDHNIYVGDLAHSAIGVITSADRAYKLLVTDEKLSWTDSFNFGSDGYLYFDCNQLHHSAPLNAGENISAPPYYIFRLKPLAAGIVGR, MGSDKIHHHHHHMSKVFIIGLPRTGTTSISVALLEMGLSVAHTAFTKKAFEMADAVTDAPCFSDYMHLDRIFPHAKFIYLTREMAKWVPSIIMLLEKMAPHLDPKTGKFNPILKRSFHHTFPGTLPLTENELIDCYTRHEQAVLSYFEGRDDFLSIDISKQGSLLEMKMFLGIEAQGSADFPKLNVGRDVASWKDYKHPNKINSNLAGVEHRKYYDYALVDYRTY, MGSDKIHHHHHHMSFDLALFSSKLRRCREQFEKSLVEVTTATGIPENILAALENGERQPTGDEVLIFADYYLCDYQFFISNERVASFDQTETLFRRYGEEFSKEDRLAVQEFLFLCECEDFLLKLVQTHIYKPFSFIKRGNYYIGHGKEAAKALRKHLGYASNAVRMDVYEDFRSLGFHIFRRQLGNSNISGLFIKHPTAGKCILVNYSEDIYRQRFTAAHESAHGILDDEQEFVISLKTDKKNLVEVRANNFASDYLMPPEFLQKIPDSQTWTPEKAIEWANKLKVSTEALANALKSANFISENVEIQIKAVRVPRDLKVDPELPESLSFGSRQRREKLLKRGLSNFYVGLCFDVYEQGFISAGRVAEMLLVSKYELTEIASIYGRTIRYGD, MEKEGFARLFHNFDNVIEPKLCSTSGSVPSYLKGTMLRNGPGMFEIGDTKYQHWFDGMGFIQRYHFEDGKMYYSARYLESENYKKNMEAQRIVTGSFGTASFPDPCKSIFSRFFSSFVQSEGIHDNANVAFAPVGDGLYACTETPNMHRVDLDSLDTLEPVDFSKYVALHTCTAHQLFDENGDVYNIGSRFGPDAAHVFTVTKNPKNLQSDSDRSWEHTTKIGEIRCSETFYPTYMHSFGMSENYLIMFESPIRIDIKKFIMKRFITTTFRDCMKWHADKDVKIFILNKKTGEQVPLKLKMAPFFTFHHANTFERDGCLVVDYCRIEQAGNFDALLIENMKTGNFQNDALFLPYLTRVIIPLSIPDGAQPGDDLLKPLGWAKGCSAIFQDDGKIRLKEKRVCDISMEFPRYHWEKINMKPYNYVYGSSVLGAQKSETLPGIVKADLENGDHKVWRRENDKQICGEPIFVPNPEGVREDDGILIVPVMTISDGQRPFVLILEAKNLTEIARYTIPEARIPLGFHAFYQGRT, MGSDKIHHHHHHVLSTANITMQFGPKPLFENISVKFGGGNRYGLIGANGCGKSTFMKILGGDLEPSSGNVMLEPNIRLGKLRQDQFAYEDVRVLDVVMMGHAEMWAAMTERDAIYANPDATDDDYMHAAELEAKFAEYDGYTAEARAGELLLGIGIAIENHNGPMSNVAPGWKLRVLLAQALFSKPDVLLLDEPTNNLDINSIRWLEDVLNQYNSTMIIISHDRHFLNQVCTHMADMDFGTLKVYPGNYDDYMLASTQARERQQNANAKAKERVADLQDFVRRFSANKSKARQATSRLKMIDKIKIEEFKPSSRQNPFIRFEYEKKLHNIAVVAEKISKKYERTIFNDFSISVQPGERIAIIGENGAGKTTLLRSLLGKLELDHGTVKWAENANIGYMPQDTYEEFPDDVTLMEWIDVYRKEGDDEQMVRGTLGRLLFNADDIRKSVKVLSGGEKGRMIWGKLMLGRHNVLLMDEPTNHMDMESIESLQIALDKFEGTLIFVSHDREFVSGLANRIIEVKTDGTLNDFGGNYEDFLLSQGVQ, GCALNCSFCSTAKQGFNRNLSTAEIIGQVWLAARELSDNNGTHDKKITNVVMMGMGEPLLNFDNVVSAMNIMMDDLAYGLSKRRVTLSTSGVLPEMERLREVSPVALAVSLHAPTDELRNELVPINKKYPLSQLISLCKRYFKDEPRRKVTFEYVMLKGVNDQPEHASQLIKLLHNVPAKVNLIPFNPFPLTQYQRSSRETIDAFRDKLMKHGINTITRKTRG

Soluble on expression in E. coli, soluble:
MAALTKVKLCQLDDLMPFIGATVLIEGERVALFYIPDSGVYAVQDWDPIGKAYVMSRGIVGDINGEMCVASPLYKQHFSLKSGQCLEDEAHCLKTWRVTVDDNQVCYLAKELEHHHHHH, MSLANRMPTPGSLAAFLKDRRTRLDPASFGFSGRRRTPGLRREEVAQRANISPTWYTWLEQGRGGAPSADVLNRIAKGLLLTEAEREHLFMLGLGRPPEVRYRGDEGVSPRLQRLIDTLEASPALVKTATWDVVAWNRAAEIVLTDYGTIPAGRRNILRFMFLTPHIRAKQHDWENLARFVVGAFRADAARAGAVSEVTQLVDELCSGSAEFATLWQENDVLAHGDGTKRLKHPELGDIELEYSSFAVDGRPDLNLTVYNPVDSEVADRIRSLAKRLREGHHHHHH, MTKNEIRKYILHKMKNFNKAEKRKADTWLRNQFFATEEYKEANAIALVLSFNHEVDTFSIIEQALMDHKRIFVPKMDYLNHQMTFKEIFNLKDIDVDNKGIYYPTSKGETTNNLDLIVVPGVGFQDDGYRIGYGGGYYDRFLANYQTKTISLLYDFQITSFEPESFDQPVDKLIIYQSALEHHHHHH, MGSDKIHHHHHHMKSYRKELWFHTKRRREFINITPLLEECVRESGIKEGLLLCNAMHITASVFINDDEPGLHHDFEVWLEKLAPEKPYSQYKHNDTGEDNADAHLKRTIMGREVVIAITDRKMDLGPWEQVFYGEFDGMRPKRVLVKIIGE
